Laboratory results published in US20210380699A1 (published 2021).

How the values were obtained:
[1] = target: T1, Human PD-L1 expressed on cells (human, UniProt Q9NZQ7 19-290); experiment: cell-based or functional assay
[2] = target: T1, Human PD-L1 expressed on cells; experiment: cell-based or functional assay; remark: listed apart in the source
[3] = target: T1, Human PD-L1 expressed on cells; experiment: cell-based or functional assay; remark: listed apart in the source
[4] = target: T2, Human PD-L1 His (human PD-L1 ECD with C-terminal His tag) (human, UniProt Q9NZQ7 19-238); experiment: SPR 37C, antibody captured, PD-L1 analyte
T2 construct: Biotinylated in ELISA and AlphaScreen assays; also called hPD-L1-his; biotinylated PD-L1 his
T2 sequence (Q9NZQ7 19-238 limits assumed): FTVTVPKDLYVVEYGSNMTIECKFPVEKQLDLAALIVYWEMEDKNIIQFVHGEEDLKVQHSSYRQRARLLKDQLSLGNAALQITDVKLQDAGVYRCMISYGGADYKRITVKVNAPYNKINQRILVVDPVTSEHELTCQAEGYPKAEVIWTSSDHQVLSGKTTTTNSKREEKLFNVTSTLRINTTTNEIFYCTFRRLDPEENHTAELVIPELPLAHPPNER
Protocol: (§1) Label-free surface plasmon resonance (SPR) analysis was carried out on the ProteOn XPR36 (BioRad) array SPR machine. An anti-human IgG capture surface was created on a GLC biosensor chip using a combination of anti-human Fc antibodies (Jackson Labs 09-005-008,109-006-008 and 309-006-008) by amine coupling. […] The data was analysed using the 1:1 model inherent to the ProteOn XPR36 analysis software.
(§2) Label-free surface plasmon resonance (SPR) analysis was performed as per Example 4, except the assay was performed at 37° C.

[5] = target: T3, Cyno PD-L1 FLAG (cynomolgus PD-L1 ECD with FLAG tag) (cynomolgus monkey); experiment: SPR 37C, antibody captured, PD-L1 analyte
T3 construct: also called cynomolgus monkey PD-L1-FLAG
T3 sequence (chain, as listed by the source limits assumed): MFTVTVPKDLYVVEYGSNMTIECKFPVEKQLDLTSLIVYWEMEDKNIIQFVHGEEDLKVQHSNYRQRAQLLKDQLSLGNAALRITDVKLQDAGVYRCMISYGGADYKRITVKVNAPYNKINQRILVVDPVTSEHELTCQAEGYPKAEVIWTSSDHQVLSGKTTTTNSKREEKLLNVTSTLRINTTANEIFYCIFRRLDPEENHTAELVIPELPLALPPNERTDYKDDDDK
Protocol: as §1, §2

[6] = target: T2, Human PD-L1 His (human PD-L1 ECD with …); experiment: ELISA, biotin-PD-L1 to plate-bound PD-1, antibody titrated
Protocol: Excess protein was removed by washing with PBS-Tween (0.1% v/v) and the wells were blocked with 1% w/v bovine serum albumin (BSA, Sigma) in PBS for 1 hour at room temperature, after which plates were washed as described previously. […] The plate was incubated for 30 minutes before transferring 50 μL to the coated plates. The coated plates were incubated for 1 hour at room temperature. Excess protein was removed by washing with PBS-Tween (0.1% v/v). PD-L1 binding was detected using streptavidin labelled Europium (Perkin Elmer) diluted 1/1000 in DELFIA assay buffer (Perkin Elmer). Plates were washed with TBS (Tris buffered saline)-Tween (0.1% v/v) and 50 μL/well of DELFIA Enhancement solution (Perkin Elmer) was added to the plate. Time-resolved fluorescence was measured at 615 nm on an Envision plate reader (PerkinElmer).

PD-L2-Fc (R&D Systems) = target: T4, PD-L2-Fc (R&D Systems) (UniProt Q9BQ51 20-219, limits assumed); experiment: DELFIA plate assay, biotinylated antibody on plate-bound PD-L2-Fc
T4 construct: not shown: Fc of the bought protein
T4 sequence (looked up): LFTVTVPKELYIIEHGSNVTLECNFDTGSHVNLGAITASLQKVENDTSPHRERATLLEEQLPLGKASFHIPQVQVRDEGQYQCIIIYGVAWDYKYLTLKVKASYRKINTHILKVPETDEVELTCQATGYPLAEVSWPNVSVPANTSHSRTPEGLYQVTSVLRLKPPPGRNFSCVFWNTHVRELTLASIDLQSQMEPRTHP
Protocol: Excess protein was removed by washing with PBS-Tween (0.1% v/v) and the wells were blocked with 250 μL/well Pierce Protein Free Blocking Buffer (Thermo, 37572) for 1 hour, after which plates were washed as described previously. […] 100 μL each antibody dilution was added to the plates in duplicate and incubated for 1 hour at room temperature, before washing as stated above. Antibody binding was detected using streptavidin labelled Europium (Perkin Elmer) diluted 1/1000 in DELFIA Assay buffer (Perkin Elmer). Plates were washed with TBS (Tris buffered saline)-Tween (0.1% v/v) and 50 μL/well of DELFIA Enhancement solution (Perkin Elmer) was added to the plate. Time-resolved fluorescence was measured at 615 nm on an Envision plate reader (PerkinElmer).

[7] = target: T1, Human PD-L1 expressed on cells; experiment: flow cytometry on CHO hPD-L1 cells, competitor biotin-PD-1-Fc
Protocol: Plates were centrifuged at 300×g for 3 minutes to supernatant aspirated. […] Cells were washed with 150 μL of PBS and centrifuged at 300 g for 3 minutes. Supernatant was aspirated and 150 μL PBS added. This wash step was repeated.

[8] = target: T1, Human PD-L1 expressed on cells; experiment: flow cytometry on CHO hPD-L1 cells, competitor biotin-CD80-Fc, n = 1
Protocol: (§3) 150 μL FACS buffer is added and cells washed as described above. […] Cells are incubated at 4° C. for 60 minutes. Cells are washed twice with 150 μL FACS buffer, centrifuging at 300 g for 3 minutes after each wash step and aspirating supernatant. Cells are fixed, washed and resuspended for analysis as above. APC signal intensity (geometric mean) is measured by flow cytometry using a Beckman Coulter CYTOFLEX instrument. Data is plotted as percentage of receptor binding.
(§4) All other steps are performed as per plate 2.

[9] = target: T1, Human PD-L1 expressed on cells; experiment: flow cytometry on CHO hPD-L1 cells, competitor biotin-CD80-Fc, n = 2
Protocol: as §3, §4

[10] = target: T1, Human PD-L1 expressed on cells; experiment: flow cytometry on CHO hPD-L1 cells, competitor biotin-PD-1-Fc, n = 1
Protocol: as §3

[11] = target: T1, Human PD-L1 expressed on cells; experiment: flow cytometry on CHO hPD-L1 cells, competitor biotin-PD-1-Fc, n = 2
Protocol: as §3

T1 sequence (Q9NZQ7 19-290 limits assumed): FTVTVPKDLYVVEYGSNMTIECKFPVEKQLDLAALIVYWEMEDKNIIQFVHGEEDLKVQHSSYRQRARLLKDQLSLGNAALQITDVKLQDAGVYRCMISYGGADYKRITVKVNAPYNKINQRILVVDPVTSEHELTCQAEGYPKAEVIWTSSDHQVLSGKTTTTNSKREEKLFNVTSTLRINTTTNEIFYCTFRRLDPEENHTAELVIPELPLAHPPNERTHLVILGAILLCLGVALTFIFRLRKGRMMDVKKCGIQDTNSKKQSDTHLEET

B1: 84G09 (human IgG1) (antibody, V domains shown)
VH: EVQLVESGGGLVQPGRSLRLSCAASGFTFDDYAMHWVRQTPGKGLEWVSGISWKSNIIGYADSVKGRFTISRDNAKNSLYLQMNSLRAEDTALYYCARDITGSGSYGWFDPWGQGTLVTVSS
VL: DIQMTQSPSSLSASVGDRVTITCRASQSISSYLNWYQQKPGKAPKPLIYVASSLQSGVPSSFSGSGSGTDFTLTISSLQPEDFATYYCQQSYSNPITFGQGTRLEIKR
notes: also called clone 84609; lead antibody
B1 was tested, and the “mean EC50, IFNγ induction, monocyte-T cell co-culture” value [1] was 0.081 nM, the “EC50, IL-2 induction, murine T cell hybridoma assay, n = 1” value [2] was 0.24 nM and the “EC50, IL-2 induction, murine T cell hybridoma assay, n = 2” value [2] was 0.14 nM. For the same binder, the “EC50, IL-2 induction, murine T cell hybridoma assay, n = 3” value [2] was 0.17 nM, the “EC50, ADCC reporter assay, n = 1” value [3] was 0.0249 nM and the “EC50, ADCC reporter assay, n = 2” value [3] was 0.0153 nM. For the same binder, the “EC50, ADCC reporter assay, n = 3” value [3] was 0.0259 nM, the Kd [4] was 0.43 nM and the Kd [5] was 0.52 nM. The IC50 [6] was 7.9 nM, the binding result (PD-L2-Fc (R&D Systems)) was “no binding (tested: 10 µg/mL top concentration)” and the IC50 [7] was 1.82 nM. The IC50 [8] was 1.11 nM, the IC50 [9] was 1.41 nM and the IC50 [10] was 0.89 nM. The IC50 [11] was 1.41 nM.
